We go through 18 sequences from the supplement of paper PMC9170038.

The subject of the data set is MS2 coat protein. Description: apparent KD of MS2 coat protein; higher = weaker reporter binding. Particulars: Eterna round: R107. The method, boiled down:
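Each design's apparent KD comes from the median of binding-curve fits to its normalised clusters. Those clusters carried RNA switches transcribed on-chip from Illumina sequencing clusters. SNAP-549-labelled MS2 coat protein was titrated onto them in twofold steps (0.7 or 1.5 nM to 3 µM; per step 0.8–1.5 h down to 10–20 min). Conditions were 100 mM Tris-HCl pH 7.5, 80 mM KCl, 4 mM MgCl2, without or with constant ligand.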

[1] abbreviates: input ligand: theophylline 20 uM.
Setting [2] is: input ligand: theophylline 2 mM.
The mark [3] stands for this setting: input ligand: tryptophan 2.4 mM.

As for “ACACGAAGCUGAAGGAGCGUGGUAUAAAUUUUUACAUGAGGAUCACCCAUGUUUCAUCAAUCACAGGUAGGUCGCAGAUGCGUGA [JR_SSArginiB_Sub014]”, the “apparent KD of MS2 coat protein” value was found to be 19.6 nM (input ligand: arginine 13.2 mM); 14.1 nM (input ligand: none); 18.6 nM under setting [1]; 20.2 nM under setting [2]; 15.9 nM under setting [3].
On to “GACCUUAUCUGAAGGAGCGAGGUAAAUAGGGAUGAGCAUACAUGAGGAUCACCCAUGUGGCCUCAGGUAGGUCGCAGAUGAGAUU [Exclusion Arginine B GF27]”, for which the “apparent KD of MS2 coat protein” value by setting is: (input ligand: arginine 13.2 mM) 77.5 nM; (input ligand: none) 113 nM; under setting [1], 155 nM; under setting [2], 149 nM; under setting [3], 105 nM.
As for “GUCUCUGAGAGAAGGAGCGUGAAGACAUGAGGAUCACCCAUGUAGAGGCGCCGAAGGCGUUCGCAGGUAGGUCGCUCUCAGAGAC [#1 Same State - Arginine B Attempt #20 (HarryS)]”, the “apparent KD of MS2 coat protein” value (input ligand: arginine 13.2 mM) worked out at 15.2 nM; the “apparent KD of MS2 coat protein” value (input ligand: none) is 15.5 nM; the “apparent KD of MS2 coat protein” value under setting [1] was 23.8 nM; the “apparent KD of MS2 coat protein” value under setting [2] turned out to be 17.5 nM; the “apparent KD of MS2 coat protein” value under setting [3] was determined as 18.4 nM.
Consider “AUAAUGAGUGGUGGAUAGGUGAUCCUCUUACGAGGACCGGUACGGCCGCCACUCGAUAACAUGAGGAUCACCCAUGUAAUAAUAA [|T'-M'-Trp-Ms2|_Design19]”, for which the “apparent KD of MS2 coat protein” value (input ligand: arginine 13.2 mM) was found to be 21 nM, the “apparent KD of MS2 coat protein” value under setting [1] was 22.6 nM and the “apparent KD of MS2 coat protein” value under setting [2] was 18.9 nM.
Regarding “CAAAACCUUACAGAUACCAGCACAUGAGGAUCACCCAUGUAUUGGACACUUCGCUCAUCGUGCCCUUGGCAGCUGUGGGACGAGG [Tiatenan]”, the “apparent KD of MS2 coat protein” value reads like this: (input ligand: arginine 13.2 mM) 30.3 nM; under setting [1], 132 nM; under setting [3], 77.6 nM.
For the sequence “GAUGAUAUUGCAGAUACCAGACACAUGAGGAUCACCCAUGUCGCUGAGUUGCUGGAUCGUGUCCCUUGGCAGCUGCGAUAUCAUC [Belgium]”, the “apparent KD of MS2 coat protein” value is, setting by setting: (input ligand: arginine 13.2 mM) 18.3 nM; under setting [1], 38.5 nM; under setting [3], 19.7 nM.
For the sequence “AGUUAUUUCCGAAGGAGCGUUAUACAUGAGGAUCACCCAUGUACAUGAGGUUCAACAUGAAAACAGGUAGGUCGCGGAUUUUGUC [Exclusion Arginine B4]”, the “apparent KD of MS2 coat protein” value by setting is: (input ligand: arginine 13.2 mM) 15.6 nM; (input ligand: none) 19.2 nM; under setting [1], 27.6 nM; under setting [2], 29 nM; under setting [3], 14.2 nM.
As to “AGCCCUGUACUAGAUACCAGCUACAUGAGGAUCACCCAUGUGCGUCAAGACUGACUGUGUAGCCCUUGGCAGCUACUCGCAUGUA [Exclusion - Theophylline B (Freestyle 3)]”, the “apparent KD of MS2 coat protein” value runs as follows: (input ligand: arginine 13.2 mM) 13.7 nM; under setting [1], 23.1 nM; under setting [3], 14.9 nM.
With “GGCCCGGACUUGGAAUGGGUGUUUCCCUCACGAGGACCGGUACGGCCGCCACUCGAAGACAUGAGGAUCACCCAUGUAGUCGACA [Qudirate]”, the “apparent KD of MS2 coat protein” value is, setting by setting: (input ligand: arginine 13.2 mM) 31.2 nM; under setting [1], 78 nM; under setting [2], 138 nM.
Turning to “ACCUGUACGAAAAGUGCAGGACAUGGAAAUCGAGGACCGGUACGGCCGCCACUCGUUGAAAACAAGUGGAUCACCCUUGUCCAUG [TrypAS 3 #AlternativeMS2 #Zipper #StaticStem]”, the “apparent KD of MS2 coat protein” value by setting is: (input ligand: arginine 13.2 mM) 35.3 nM; (input ligand: none) 417 nM; under setting [1], 764 nM; under setting [2], 872 nM; under setting [3], 1070 nM.
As to “ACGUCUCGAAAACUCGUAGUAACUAUAGAUACCAGUAGCGAGAGUUACCCUUGGCAGCUACAUGAGGAUCACCCAUGUACGAGGA [XTheo A #28]”, the “apparent KD of MS2 coat protein” value was 16.4 nM (input ligand: arginine 13.2 mM), 20.9 nM under setting [1] and 15.1 nM under setting [3].
The like results for “ACAUGAGGAUGGGAUACCAGAUACAUGAGGAUCACCCAUACAUGAGGAUCACCCAUGUCCGUCCCUUGGCAGCCCAACAUGAGGA [Exclusion Theophylline B]” were, in that order, 77.4 nM, 153 nM and 150 nM.
Take “UGGGUACAUGAGGAUCACCCAUGUACUGAAGGAGCGAGAAAUAACUCAGGUAGGUCGCAGACAUGAGGAUCACCCAUGUAAUAAA [Exclusion Arginine A GF 10]”: the “apparent KD of MS2 coat protein” value by setting is: (input ligand: arginine 13.2 mM) 16 nM; (input ligand: none) 18 nM; under setting [1], 23.4 nM; under setting [2], 22.5 nM; under setting [3], 18 nM.
Consider “AAUGAUGCGAUCUACAGUCGAGGAUUCGAUACCAGCAACGGGCGUUGCCCUUGGCAGCGAGCUACAUGAGGAUCACCCAUGUUAC [theeternabot_exclusion_MS2_Theo_A_45]”, for which the “apparent KD of MS2 coat protein” value (input ligand: arginine 13.2 mM) was 16.8 nM, the “apparent KD of MS2 coat protein” value under setting [1] was determined as 25.5 nM and the “apparent KD of MS2 coat protein” value under setting [3] was determined as 19.4 nM.
The like results for “AGAUGACACAGUGGAUAGCAAGAUGCCGAUACCAGCUAGGAAACUAGCCCUUGGCAGCGGUACAUGAGGAUCACCCAUGUAUCCU [EThA NP+V+V2 #10]” were, in that order, 12.4 nM, 15.1 nM and 13.4 nM.
As for “GGCACAUAGUCGGCCGCCACUAGAAUAAGAAGGGAAAACAUGAGGAUCACCCAUGUAAAAGGGACUAGGACCGGGACUAUGUGCC [Shrew]”, the “apparent KD of MS2 coat protein” value was found to be 14.5 nM (input ligand: arginine 13.2 mM), 18.2 nM under setting [1] and 17 nM under setting [2].
For the sequence “UCGGACAUGAGGAUCACCCAUGUAAAUCCUCGAGGACCGGUACGGCCGCCACUCGAACGAGUGGCGCGCGAGUGCGCACUCGCGC [aFa]”, the “apparent KD of MS2 coat protein” value (input ligand: arginine 13.2 mM) came to 22.2 nM; the “apparent KD of MS2 coat protein” value (input ligand: none) turned out to be 33.2 nM; the “apparent KD of MS2 coat protein” value under setting [1] is 57.9 nM; the “apparent KD of MS2 coat protein” value under setting [2] stood at 35.8 nM; the “apparent KD of MS2 coat protein” value under setting [3] was 26.6 nM.
Regarding “CCUGGACAUGAGGAUCACCCAUGUGAGGAUACCAGAUAUCCUGAUAUCCCUUGGCAGCCUCAUUACUUCGCAUUACCGAAACUUC [theeternabot_sameState_MS2_Theo_A_35]”, the “apparent KD of MS2 coat protein” value runs as follows: (input ligand: arginine 13.2 mM) 31.1 nM; under setting [1], 166 nM; under setting [3], 57.1 nM.
